{"source": "paper PMC7237134", "binders": {"B1": {"name": "11 nt Atto647-labelled RNA (ssRNA)", "RNA": "GUAAUGAAAGU"}}, "assay_in_all_cases": "fluorescence anisotropy", "key": {"Sgd1 MA3-Cterm": {"biological_target": "T1, Sgd1 MA3-Cterm (Saccharomyces cerevisiae, UniProt Q06132 645-899)", "T1 sequence": "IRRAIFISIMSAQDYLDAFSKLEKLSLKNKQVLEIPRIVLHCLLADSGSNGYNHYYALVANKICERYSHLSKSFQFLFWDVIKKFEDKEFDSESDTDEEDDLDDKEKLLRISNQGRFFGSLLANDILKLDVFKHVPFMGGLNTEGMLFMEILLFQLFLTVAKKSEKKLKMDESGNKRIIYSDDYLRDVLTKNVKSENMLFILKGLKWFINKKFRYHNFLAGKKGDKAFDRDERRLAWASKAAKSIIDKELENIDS"}, "[1]": {"biological_target": "T2, Sgd1 MIF4G-Cterm (MIF4G, MA3 and C-terminal region) (Saccharomyces cerevisiae, UniProt Q06132 330-899)", "T2 sequence": "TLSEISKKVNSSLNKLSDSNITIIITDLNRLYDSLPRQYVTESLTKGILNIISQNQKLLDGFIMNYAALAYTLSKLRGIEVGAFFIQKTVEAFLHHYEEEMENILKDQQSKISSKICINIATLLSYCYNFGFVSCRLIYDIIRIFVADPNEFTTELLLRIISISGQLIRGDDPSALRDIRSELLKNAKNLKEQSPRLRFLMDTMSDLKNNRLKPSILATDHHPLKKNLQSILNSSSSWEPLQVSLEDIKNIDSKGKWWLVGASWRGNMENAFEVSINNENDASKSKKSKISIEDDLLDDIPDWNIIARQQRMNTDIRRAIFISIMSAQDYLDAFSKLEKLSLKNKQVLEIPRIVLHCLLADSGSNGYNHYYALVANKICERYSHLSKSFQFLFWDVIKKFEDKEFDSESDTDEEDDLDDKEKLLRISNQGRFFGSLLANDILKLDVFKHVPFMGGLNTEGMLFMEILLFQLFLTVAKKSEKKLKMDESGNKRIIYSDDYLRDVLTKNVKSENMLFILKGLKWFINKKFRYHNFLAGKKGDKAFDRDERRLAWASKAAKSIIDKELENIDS"}, "Sgd1 Nterm-MIF4G": {"biological_target": "T3, Sgd1 Nterm-MIF4G (Saccharomyces cerevisiae, UniProt Q06132 1-541)", "T3 sequence": "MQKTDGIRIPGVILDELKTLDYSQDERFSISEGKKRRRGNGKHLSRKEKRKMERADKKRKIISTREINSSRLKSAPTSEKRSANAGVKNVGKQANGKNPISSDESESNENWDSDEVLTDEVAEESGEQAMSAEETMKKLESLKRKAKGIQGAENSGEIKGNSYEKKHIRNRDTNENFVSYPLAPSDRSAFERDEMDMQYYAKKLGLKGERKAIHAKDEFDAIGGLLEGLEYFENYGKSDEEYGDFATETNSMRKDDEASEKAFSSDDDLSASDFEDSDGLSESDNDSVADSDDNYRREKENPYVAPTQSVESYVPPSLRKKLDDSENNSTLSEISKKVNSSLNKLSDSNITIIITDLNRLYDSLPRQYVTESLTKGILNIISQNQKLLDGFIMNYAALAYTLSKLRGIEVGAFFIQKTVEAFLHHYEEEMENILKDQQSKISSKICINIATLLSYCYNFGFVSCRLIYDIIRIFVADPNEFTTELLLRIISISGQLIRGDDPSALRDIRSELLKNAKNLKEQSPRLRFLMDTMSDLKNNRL"}}}
{"binder": "B1", "values": [{"measurement": "binding result", "setting": "Sgd1 MA3-Cterm", "value": "binds"}, {"measurement": "binding result", "setting": "[1]", "value": "binds"}, {"measurement": "binding result", "setting": "Sgd1 Nterm-MIF4G", "value": "no binding"}]}
